From PMC2362362 (British Journal of Cancer, 1999)

B1: Ki-4 single-chain variable fragment (scFv), soluble (scFv, V domains shown)
VH: QVKLQESGTELAKPGAAVKMSCKASGYTFTDYWMHWVKQRPGQGLEWIGYINPNTAYTDYNQKFKDKATLTADKSSSTAYMQLRSLTSEDSAVYYCAKKTTQTTWGFPFWGQGTTVTVSS
VL: DIVLTQSPKSMAMSVGERVTLSCKASENVDSFVSWYQQKPGQSPKLLIYGASNRYTGVPDRFAGSGSGRDFTLTISSVQAEDLADYHCGQNYRYPLTFGAGTKLEIK
notes: also called Ki-4 scFv; His-tagged Ki-4 scFv
B2: anti-CD30 monoclonal antibody Ki-4 (antibody, V domains shown)
VH: B1 VH
VL: B1 VL
notes: also called Ki-4 mAb; Ki-4 whole antibody; copies: 2 + 2

Target: T1, extracellular domain of the human CD30 receptor fused to the hinge, CH2 and CH3 domain of human IgG1 … (Homo sapiens (Human)., UniProt P28908)
T1 construct: also called recombinant, human sCD30-Fc protein
T1 sequence (P28908 19-385): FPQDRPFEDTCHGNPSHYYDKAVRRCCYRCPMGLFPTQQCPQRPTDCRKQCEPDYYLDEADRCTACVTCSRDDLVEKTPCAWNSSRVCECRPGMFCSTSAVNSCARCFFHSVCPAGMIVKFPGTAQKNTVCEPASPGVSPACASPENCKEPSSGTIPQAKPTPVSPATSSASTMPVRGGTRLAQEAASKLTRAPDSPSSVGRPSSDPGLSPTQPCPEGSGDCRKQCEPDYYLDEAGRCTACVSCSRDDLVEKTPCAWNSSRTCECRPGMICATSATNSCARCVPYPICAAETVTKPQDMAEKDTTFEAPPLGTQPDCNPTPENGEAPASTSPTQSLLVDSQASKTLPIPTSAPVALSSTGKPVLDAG
Assay: SPR; BIAcore 2000; sCD30-Fc covalently coupled to a CM-5 sensorchip (450 RU, 'low density'); surface saturated by multiple injections of antibody or fragment, flow 20 ul/min; dissociation rates by curve fitting (monovalent for the scFv, bivalent for the mAb)
Settings: both partners purified

| Binder | koff | t1/2 of the antibody-antigen complex (=ln2/koff) |
| --- | --- | --- |
| B1 | 0.00018 s⁻¹ | 1.07 h |
| B2 | 0.00012 s⁻¹ | 1.6 h |
